# Assay results as given in paper doi:10.1101/2020.02.01.930206 (bioRxiv, 2020).
# T1: full-length mouse DNA2 (mouse, UniProt Q6ZQJ5 1-1062)
# T1 sequence: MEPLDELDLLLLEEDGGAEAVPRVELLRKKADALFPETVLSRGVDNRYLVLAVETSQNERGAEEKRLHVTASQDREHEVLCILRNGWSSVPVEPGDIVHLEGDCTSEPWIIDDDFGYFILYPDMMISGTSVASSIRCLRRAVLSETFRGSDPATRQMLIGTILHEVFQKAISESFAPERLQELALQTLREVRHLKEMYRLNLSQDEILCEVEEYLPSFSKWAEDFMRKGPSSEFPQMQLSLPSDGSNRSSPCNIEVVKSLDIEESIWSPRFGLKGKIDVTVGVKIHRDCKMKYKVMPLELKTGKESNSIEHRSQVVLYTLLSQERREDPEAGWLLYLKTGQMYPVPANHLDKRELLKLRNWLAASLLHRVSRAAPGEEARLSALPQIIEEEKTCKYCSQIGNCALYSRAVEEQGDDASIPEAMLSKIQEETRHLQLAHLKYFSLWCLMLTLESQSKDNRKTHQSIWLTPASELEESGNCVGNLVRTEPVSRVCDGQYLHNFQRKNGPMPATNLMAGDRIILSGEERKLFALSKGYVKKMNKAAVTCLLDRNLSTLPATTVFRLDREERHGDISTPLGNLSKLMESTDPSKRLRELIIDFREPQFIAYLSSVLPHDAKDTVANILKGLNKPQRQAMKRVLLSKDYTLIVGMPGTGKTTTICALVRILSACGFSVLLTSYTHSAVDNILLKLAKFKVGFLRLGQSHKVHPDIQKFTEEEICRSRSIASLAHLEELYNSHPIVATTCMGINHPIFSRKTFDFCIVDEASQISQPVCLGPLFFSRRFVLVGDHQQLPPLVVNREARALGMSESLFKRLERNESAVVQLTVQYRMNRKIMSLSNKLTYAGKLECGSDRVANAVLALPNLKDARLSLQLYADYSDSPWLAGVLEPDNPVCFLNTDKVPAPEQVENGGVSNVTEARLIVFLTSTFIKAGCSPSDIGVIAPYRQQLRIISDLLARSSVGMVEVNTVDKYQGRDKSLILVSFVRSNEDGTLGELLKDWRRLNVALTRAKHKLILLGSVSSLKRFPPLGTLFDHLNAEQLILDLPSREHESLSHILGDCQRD
# T2: human primase (PriL-PriS heterodimer) (human, UniProt P49643;P49642)
# T2 sequence 1: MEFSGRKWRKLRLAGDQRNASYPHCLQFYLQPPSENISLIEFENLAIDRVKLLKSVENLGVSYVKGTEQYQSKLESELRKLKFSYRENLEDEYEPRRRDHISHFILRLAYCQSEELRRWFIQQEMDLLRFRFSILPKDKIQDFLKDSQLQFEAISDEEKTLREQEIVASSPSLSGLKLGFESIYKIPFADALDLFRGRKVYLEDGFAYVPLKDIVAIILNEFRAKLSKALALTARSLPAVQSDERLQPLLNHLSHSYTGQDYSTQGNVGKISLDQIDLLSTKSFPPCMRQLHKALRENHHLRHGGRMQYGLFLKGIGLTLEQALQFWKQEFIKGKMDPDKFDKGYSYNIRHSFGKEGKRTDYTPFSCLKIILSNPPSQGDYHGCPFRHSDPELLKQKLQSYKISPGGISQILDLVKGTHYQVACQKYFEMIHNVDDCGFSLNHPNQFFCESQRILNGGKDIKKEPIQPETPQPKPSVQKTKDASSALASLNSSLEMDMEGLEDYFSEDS
# T2 sequence 2: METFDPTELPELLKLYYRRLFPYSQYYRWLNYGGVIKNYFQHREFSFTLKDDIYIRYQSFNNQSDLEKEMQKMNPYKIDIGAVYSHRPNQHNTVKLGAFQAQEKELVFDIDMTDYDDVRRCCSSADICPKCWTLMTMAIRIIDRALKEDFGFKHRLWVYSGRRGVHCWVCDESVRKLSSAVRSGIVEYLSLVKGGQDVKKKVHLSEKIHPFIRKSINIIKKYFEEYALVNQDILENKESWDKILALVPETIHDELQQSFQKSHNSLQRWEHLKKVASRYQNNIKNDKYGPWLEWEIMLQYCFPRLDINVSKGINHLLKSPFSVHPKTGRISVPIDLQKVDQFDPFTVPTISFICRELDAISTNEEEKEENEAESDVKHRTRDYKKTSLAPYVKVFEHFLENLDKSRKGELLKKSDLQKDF
# B1: human MMS19 (subunit of the purified CTC) (natural protein)
# chain: MAAAAAVEAAAPMGALWGLVHDFVVGQQEGPADQVAADVKSGNYTVLQVVEALGSSLENPEPRTRARAIQLLSQVLLHCHTLLLEKEVVHLILFYENRLKDHHLVIPSVLQGLKALSLCVALPPGLAVSVLKAIFQEVHVQSLPQVDRHTVYNIITNFMRTREEELKSLGADFTFGFIQVMDGEKDPRNLLVAFRIVHDLISRDYSLGPFVEELFEVTSCYFPIDFTPPPNDPHGIQREDLILSLRAVLASTPRFAEFLLPLLIEKVDSEVLSAKLDSLQTLNACCAVYGQKELKDFLPSLWASIRREVFQTASERVEAEGLAALHSLTACLSRSVLRADAEDLLDSFLSNILQDCRHHLCEPDMKLVWPSAKLLQAAAGASARACDSVTSNVLPLLLEQFHKHSQSSQRRTILEMLLGFLKLQQKWSYEDKDQRPLNGFKDQLCSLVFMALTDPSTQLQLVGIRTLTVLGAQPDLLSYEDLELAVGHLYRLSFLKEDSQSCRVAALEASGTLAALYPVAFSSHLVPKLAEELRVGESNLTNGDEPTQCSRHLCCLQALSAVSTHPSIVKETLPLLLQHLWQVNRGNMVAQSSDVIAVCQSLRQMAEKCQQDPESCWYFHQTAIPCLLALAVQASMPEKEPSVLRKVLLEDEVLAAMVSVIGTATTHLSPELAAQSVTHIVPLFLDGNVSFLPENSFPSRFQPFQDGSSGQRRLIALLMAFVCSLPRNVEIPQLNQLMRELLELSCCHSCPFSSTAAAKCFAGLLNKHPAGQQLDEFLQLAVDKVEAGLGSGPCRSQAFTLLLWVTKALVLRYHPLSSCLTARLMGLLSDPELGPAAADGFSLLMSDCTDVLTRAGHAEVRIMFRQRFFTDNVPALVQGFHAAPQDVKPNYLKGLSHVLNRLPKPVLLPELPTLLSLLLEALSCPDCVVQLSTLSCLQPLLLEAPQVMSLHVDTLVTKFLNLSSSPSMAVRIAALQCMHALTRLPTPVLLPYKPQVIRALAKPLDDKKRLVRKEAVSARGEWFLLGSPGS
# B2: human CIAO1-CIAO2B core complex (complex)
# chain 1: not shown
# chain 2: MVGGGGVGGGLLENANPLIYQRSGERPVTAGEEDEQVPDSIDAREIFDLIRSINDPEHPLTLEELNVVEQVRVQVSDPESTVAVAFTPTIPHCSMATLIGLSIKVKLLRSLPQRFKMDVHITPGTHASEHAVNKQLADKERVAAALENTHLLEVVNQCLSARS
# B3: human MMS19^710-1030-CIAO1-CIAO2B complex (complex)
# chain 1: GQRRLIALLMAFVCSLPRNVEIPQLNQLMRELLELSCCHSCPFSSTAAAKCFAGLLNKHPAGQQLDEFLQLAVDKVEAGLGSGPCRSQAFTLLLWVTKALVLRYHPLSSCLTARLMGLLSDPELGPAAADGFSLLMSDCTDVLTRAGHAEVRIMFRQRFFTDNVPALVQGFHAAPQDVKPNYLKGLSHVLNRLPKPVLLPELPTLLSLLLEALSCPDCVVQLSTLSCLQPLLLEAPQVMSLHVDTLVTKFLNLSSSPSMAVRIAALQCMHALTRLPTPVLLPYKPQVIRALAKPLDDKKRLVRKEAVSARGEWFLLGSPGS
# chain 2: not shown
# chain 3: MVGGGGVGGGLLENANPLIYQRSGERPVTAGEEDEQVPDSIDAREIFDLIRSINDPEHPLTLEELNVVEQVRVQVSDPESTVAVAFTPTIPHCSMATLIGLSIKVKLLRSLPQRFKMDVHITPGTHASEHAVNKQLADKERVAAALENTHLLEVVNQCLSARS
# B4: full-length mouse MMS19 (natural protein)
# chain: MAAATGLEEAVAPMGALCGLVQDFVMGQQEGPADQVAADVKSGGYTVLQVVEALGSSLENAEPRTRARGAQLLSQVLLQCHSLLSEKEVVHLILFYENRLKDHHLVVPSVLQGLRALSMSVALPPGLAVSVLKAIFQEVHVQSLLQVDRHTVFSIITNFMRSREEELKGLGADFTFGFIQVMDGEKDPRNLLLAFRIVHDLISKDYSLGPFVEELFEVTSCYFPIDFTPPPNDPYGIQREDLILSLRAVLASTPRFAEFLLPLLIEKVDSEILSAKLDSLQTLNACCAVYGQKELKDFLPSLWASIRREVFQTASERVEAEGLAALHSLTACLSCSVLRADAEDLLGSFLSNILQDCRHHLCEPDMKLVWPSAKLLQAAAGASARACEHLTSNVLPLLLEQFHKHSQSNQRRTILEMILGFLKLQQKWSYEDRDERPLSSFKDQLCSLVFMALTDPSTQLQLVGIRTLTVLGAQPGLLSAEDLELAVGHLYRLTFLEEDSQSCRVAALEASGTLATLYPGAFSRHLLPKLAEELHKGESDVARADGPTKCSRHFRCLQALSAVSTHPSIVKETLPLLLQHLCQANKGNMVTESSEVVAVCQSLQQVAEKCQQDPESYWYFHKTAVPCLFALAVQASMPEKESSVLRKVLLEDEVLAALASVIGTATTHLSPELAAQSVTCIVPLFLDGNTSFLPENSFPDQFQPFQDGSSGQRRLVALLTAFVCSLPRNVEIPQLNRLMRELLKQSCGHSCPFSSTAATKCFAGLLNKQPPGQQLEEFLQLAVGTVEAGLASESSRDQAFTLLLWVTKALVLRYHPLSACLTTRLMGLLSDPELGCAAADGFSLLMSDCTDVLTRAGHADVRIMFRQRFFTDNVPALVQGFHAAPQDVKPNYLKGLSHVLNRLPKPVLLPELPTLLSLLLEALSCPDSVVQLSTLSCLQPLLLEAPQIMSLHVDTLVTKFLNLSSSYSMAVRIAALQCMHALTRLPTSVLLPYKSQVIRALAKPLDDKKRLVRKEAVSARGEWFLLGSPGS
# Legend:
# full-length mouse DNA2 = molecular target: T1, full-length mouse DNA2; assay: cryo-EM structure
# [1] = molecular target: T2, human primase (PriL-PriS heterodimer); assay: ITC
# crystal structure = molecular target: the molecule itself; assay: crystal structure
Binder,Kd [1] [µM],also measured
B1,,binding result (full-length mouse DNA2): binds
B2,5.4,
B3,0.832,
B4,,binding result (crystal structure): binds
